Our source for the Kd values is PMC3149827 (2011).

Assay [1] deals with Soluble expressed urokinase plasminogen activator receptor. Briefly: SPR.
In assay [2] the target is gC1qR (Homo sapiens) (UniProt Q07021). Particulars: cited from earlier work.
Assay [3] deals with T1, cytokeratin 1 (Homo sapiens, UniProt P04264).
T1 chain: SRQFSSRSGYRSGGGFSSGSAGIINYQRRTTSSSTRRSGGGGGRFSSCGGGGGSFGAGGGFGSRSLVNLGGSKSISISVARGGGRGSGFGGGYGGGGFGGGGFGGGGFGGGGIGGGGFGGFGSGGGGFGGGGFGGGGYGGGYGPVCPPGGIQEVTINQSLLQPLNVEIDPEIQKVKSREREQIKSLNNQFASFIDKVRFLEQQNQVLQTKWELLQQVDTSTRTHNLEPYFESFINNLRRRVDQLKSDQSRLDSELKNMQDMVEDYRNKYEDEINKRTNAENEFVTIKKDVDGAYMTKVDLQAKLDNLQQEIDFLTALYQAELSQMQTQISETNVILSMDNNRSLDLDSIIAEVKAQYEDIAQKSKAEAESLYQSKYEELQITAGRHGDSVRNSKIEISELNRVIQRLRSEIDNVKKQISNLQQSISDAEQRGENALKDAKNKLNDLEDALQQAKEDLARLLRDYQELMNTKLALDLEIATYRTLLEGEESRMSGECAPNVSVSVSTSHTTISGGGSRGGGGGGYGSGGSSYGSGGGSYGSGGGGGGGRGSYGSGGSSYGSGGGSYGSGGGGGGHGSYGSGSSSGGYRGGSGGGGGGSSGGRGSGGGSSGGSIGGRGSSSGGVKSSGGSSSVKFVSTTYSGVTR
Nature of the assay: SPR. In general terms: SPR reads the build-up and loss of mass on a sensor chip optically.

gC1qR (Homo sapiens), sequence (Q07021 74-282): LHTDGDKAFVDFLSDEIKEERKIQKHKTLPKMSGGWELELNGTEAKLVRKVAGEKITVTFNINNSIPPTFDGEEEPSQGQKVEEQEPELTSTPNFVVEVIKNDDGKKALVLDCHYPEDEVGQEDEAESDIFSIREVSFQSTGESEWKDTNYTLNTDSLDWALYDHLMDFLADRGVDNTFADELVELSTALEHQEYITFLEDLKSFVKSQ

“Single-chain urokinase-type plasminogen activator (ligand)”: the Kd in assay [1] was in the range of 0.1 to 1 nM.
For “cleaved high-molecular-weight kininogen (HKa) (from UniProt P01042)”, the Kd in assay [2] was 9 nM.

B1: high-molecular-weight kininogen (HK/HKa) (protein)
chain: QESQSEEIDCNDKDLFKAVDAALKKYNSQNQSNNQFVLYRITEATKTVGSDTFYSFKYEIKEGDCPVQSGKTWQDCEYKDAAKAATGECTATVGKRSSTKFSVATQTCQITPAEGPVVTAQYDCLGCVHPISTQSPDLEPILRHGIQYFNNNTQHSSLFMLNEVKRAQRQVVAGLNFRITYSIVQTNCSKENFLFLTPDCKSLWNGDTGECTDNAYIDIQLRIASFSQNCDIYPGKDFVQPPTKICVGCPRDIPTNSPELEETLTHTITKLNAENNATFYFKIDNVKKARVQVVAGKKYFIDFVARETTCSKESNEELTESCETKKLGQSLDCNAEVYVVPWEKKIYPTVNCQPLGMISLMKRPPGFSPFRSSRIGEIKEETTVSPPHTSMAPAQDEERDSGKEQGHTRRHDWGHEKQRKHNLGHGHKHERDQGHGHQRGHGLGHGHEQQHGLGHGHKFKLDDDLEHQGGHVLDHGHKHKHGHGHGKHKNKGKKNGKHNGWKTEHLASSSEDSTTPSAQTQEKTEGPTPIPSLAKPGVTVTFSDFQDSDLIATMMPPISPAPIQSDDDWIPDIQIDPNGLSFNPISDFPDTTSPKCPGRPWKSVSEINPTTQMKESYYFDLTDGLS
modifications: Zn2+
With B1, in assay [3], the Kd was ~10 nM.

As a reminder, the Kd is a measure of binding affinity in units of concentration.
